We go through 47 molecules from patent publication US20200095340A1.

Where a chain is given by its changes, count along the chain named.

B1: anti-DLL3 trispecific protein, DLL3 binder 3E04 (protein, part only; not given: CD3 fragment and albumin sdAb, part only)
chain, part: EVQLVESGGGLVQPGGSLTLSCAASGSSVHFLSMAWYRQAPGKKRELVAGISRDGSTDYIDSVKGRFTISRDNAKNSVYLQMNSLRAEDTAVYYCYAYRWTTRYRYWGQGTLVTVSSGGGGSGGGSGGGGSGGGSHHHHHH
B2: anti-DLL3 trispecific protein, DLL3 binder 3F08 (protein, part only; not given: CD3 fragment and albumin sdAb, part only)
chain, part: B1 chain, part with S28R, H30S, R53A, D58L, T101H, R105T
B3: anti-DLL3 trispecific protein, DLL3 binder 4B04 (protein, part only; not given: anti-CD3 fragment and anti-albumin sdAb, part only)
chain, part: B1 chain, part with H30L, I51V, R53S, T101R, R105T
B4: anti-DLL3 trispecific protein, DLL3 binder 3E01 (protein, part only; not given: anti-CD3 fragment and anti-albumin sdAb, part only)
chain, part: B1 chain, part with H30K, R53A, D58M, T101H, R105T
B5: anti-DLL3 trispecific protein, DLL3 binder 4H07 (protein, part only; not given: anti-CD3 fragment and anti-albumin sdAb, part only)
chain, part: B1 chain, part with S27R, H30S, R53A, D54N, T101S, R105T
B6: anti-DLL3 trispecific protein, DLL3 binder 3G07 (protein, part only; not given: anti-CD3 fragment and anti-albumin sdAb, part only)
chain, part: B1 chain, part with H30S, T102S, R105T
B7: anti-DLL3 trispecific protein, DLL3 binder 4F02 (protein, part only; not given: anti-CD3 fragment and anti-albumin domain, part only)
chain, part: B1 chain, part with S28T, H30S, R53H, R105T
B8: anti-DLL3 trispecific protein, DLL3 binder 3A06 (protein, part only; not given: anti-CD3 fragment and anti-albumin domain, part only)
chain, part: B1 chain, part with S21R, S28K, H30S, R53A, I60V, T102R, R105T
B9: anti-DLL3 trispecific protein, DLL3 binder 3G08 (protein, part only; not given: anti-CD3 fragment and anti-albumin sdAb, part only)
chain, part: B1 chain, part with S28R, H30S, R53K, Y104V, R105T
B10: anti-DLL3 trispecific protein, DLL3 binder 3B06 (protein, part only; not given: anti-CD3 fragment and anti-albumin sdAb, part only)
chain, part: B1 chain, part with S27K, H30S, R53K, R105T
B11: anti-DLL3 trispecific protein, DLL3 binder 3A08 (protein, part only; not given: CD3 binder and albumin binder, part only)
chain, part: B1 chain, part with H30G, R53A, D61R, T101R, R105T
B12: anti-DLL3 trispecific protein, DLL3 binder 3B010 (protein, part only; not given: anti-CD3 and anti-albumin domains, part only)
chain, part: B1 chain, part with H30S, T101V, R105T
B13: anti-DLL3 trispecific protein, DLL3 binder 3C01 (protein, part only; not given: CD3 binder and albumin binder, part only)
chain, part: B1 chain, part with H30R, R53A, D54H, T101S, R105T
B14: anti-DLL3 trispecific protein, DLL3 binder 4C08 (protein, part only; not given: CD3 binder and albumin binder, part only)
chain, part: B1 chain, part with A23V, S28Q, H30S, R53A, I60F, T102R, R105T
B15: anti-DLL3 trispecific protein, DLL3 binder 3A010 (protein, part only; not given: anti-CD3 fragment and anti-albumin sdAb, part only)
chain, part: B1 chain, part with S28R, H30S, R53A, D58L, Y104R, R105T
B16: anti-DLL3 trispecific protein, DLL3 binder 4B06 (protein, part only; not given: anti-CD3 fragment and anti-albumin domain, part only)
chain, part: B1 chain, part with S28R, H30S, R53A, I60F, T102R, R105T
B17: anti-DLL3 trispecific protein, DLL3 binder 4G02 (protein, part only; not given: CD3 binder and albumin binder, part only)
chain, part: B1 chain, part with H30K, Y104H, R105T
B18: anti-DLL3 trispecific protein, DLL3 binder 3H09 (protein, part only; not given: anti-CD3 fragment and anti-albumin domain, part only)
chain, part: B1 chain, part with G26K, H30S, R53A, Y104A, R105T
B19: anti-DLL3 trispecific protein, DLL3 binder 3A01 (protein, part only; not given: anti-CD3 fragment and anti-albumin sdAb, part only)
chain, part: B1 chain, part with H30K, R53A, T102R, R105T
B20: anti-DLL3 trispecific protein, DLL3 binder 3C011 (protein, part only; not given: anti-CD3 fragment and anti-albumin domain, part only)
chain, part: B1 chain, part with H30R, R53A, D54H, T101R, R105T
B21: anti-DLL3 trispecific protein, DLL3 binder 3D010 (protein, part only; not given: CD3 binder and albumin binder, part only)
chain, part: B1 chain, part with V29K, H30S, R53A, D58S, R105T
B22: anti-DLL3 trispecific protein, DLL3 binder 3H07 (protein, part only; not given: anti-CD3 and anti-albumin domains, part only)
chain, part: B1 chain, part with S28R, H30S, R53A, D58S, T101R, R105T
B23: anti-DLL3 trispecific protein, DLL3 binder 3A05 (protein, part only; not given: anti-CD3 fragment and anti-albumin domain, part only)
chain, part: B1 chain, part with H30S, R53E, D54A, T101R, R105T
B24: anti-DLL3 trispecific protein, DLL3 binder 3A03 (protein, part only; not given: CD3 fragment and albumin sdAb, part only)
chain, part: B1 chain, part with S28R, H30S, Y104R, R105T
B25: anti-DLL3 trispecific protein, DLL3 binder 4H03 (protein, part only; not given: CD3 binder and albumin binder, part only)
chain, part: B1 chain, part with S28R, H30S, R53A, D58S, R105T
B26: anti-DLL3 trispecific protein, DLL3 binder 3D02 (protein, part only; not given: anti-CD3 fragment and anti-albumin sdAb, part only)
chain, part: B1 chain, part with H30R, T101I, R105T
B27: anti-DLL3 trispecific protein, DLL3 binder 4E011 (protein, part only; not given: anti-CD3 fragment and anti-albumin sdAb, part only)
chain, part: B1 chain, part with H30S, R53A, D54T, T101S, R105T
B28: anti-DLL3 trispecific protein, DLL3 binder 3F03 (protein, part only; not given: CD3 fragment and albumin sdAb, part only)
chain, part: B1 chain, part with H30S, R53A, T101R, R105T
B29: anti-DLL3 trispecific protein, DLL3 binder 4A06 (protein, part only; not given: anti-CD3 fragment and anti-albumin domain, part only)
chain, part: B1 chain, part with H30R, Y104R, R105T
B30: anti-DLL3 trispecific protein, DLL3 binder 3D05 (protein, part only; not given: CD3 binder and albumin binder, part only)
chain, part: B1 chain, part with H30R, R53A, T102R, R105T
B31: anti-DLL3 trispecific protein, DLL3 binder 3E02 (protein, part only; not given: anti-CD3 fragment and anti-albumin domain, part only)
chain, part: B1 chain, part with S28G, H30R, R53P, T102R, R105T
B32: anti-DLL3 trispecific protein, DLL3 binder 4H09 (protein, part only; not given: anti-CD3 and anti-albumin domains, part only)
chain, part: B1 chain, part with H30S, F31K, R53A, I60R, T102Y, R105T
B33: anti-DLL3 trispecific protein, DLL3 binder 3G06 (protein, part only; not given: CD3 binder and albumin binder, part only)
chain, part: B1 chain, part with H30K, R53A, D58L, Y104R, R105T
B34: anti-DLL3 trispecific protein, DLL3 binder 4F03 (protein, part only; not given: CD3 binder and albumin binder, part only)
chain, part: B1 chain, part with H30Q, R53Y, T101R, R105T
B35: anti-DLL3 trispecific protein, DLL3 binder 3F09 (protein, part only; not given: anti-CD3 fragment and anti-albumin sdAb, part only)
chain, part: B1 chain, part with H30R, T101G, R105T
B36: anti-DLL3 trispecific protein, DLL3 binder 3B02 (protein, part only; not given: CD3 fragment and albumin sdAb, part only)
chain, part: B1 chain, part with H30Q, R53A, D61N, T101R, R105T
B37: anti-DLL3 trispecific protein, DLL3 binder 2B011 (protein, part only; not given: CD3 binder and albumin binder, part only)
chain, part: EVQLVESGGGLVQPGGSLTLSCVASGNTSSINAMGWYRRAPGKQRELVAGISSDGSRVYADSVKGRFTISRDNAKNSVYLQMNSLRAEDTAVYYCYYFRTVSGSSMRSWGQGTLVTVSSGGGGSGGGSGGGGSGGGSHHHHHH
B38: anti-DLL3 trispecific protein, DLL3 binder 1D02 (protein, part only; not given: CD3 binder and albumin binder, part only)
chain, part: B37 chain, part with N27S, G35A, D54N, R57K, T100Q, S108Y
B39: anti-DLL3 trispecific protein, DLL3 binder 1G05 (protein, part only; not given: anti-CD3 fragment and anti-albumin sdAb, part only)
chain, part: B37 chain, part with N27S, M34I, R57K, V58Y, S102T, S108Y
B40: anti-DLL3 trispecific protein, DLL3 binder 1B08 (protein, part only; not given: CD3 binder and albumin binder, part only)
chain, part: B37 chain, part with N27T, R57K, A60V, T100F, S108Y
B41: anti-DLL3 trispecific protein, DLL3 binder 1H06 (protein, part only; not given: anti-CD3 fragment and anti-albumin sdAb, part only)
chain, part: B37 chain, part with N27T, R57K, A60V, T100F, V101L, S108Y
B42: anti-DLL3 trispecific protein, DLL3 binder 2G011 (protein, part only; not given: anti-CD3 fragment and anti-albumin sdAb, part only)
chain, part: B37 chain, part with N27S, V48P, S53R, R57K, T100Y, S108Y
B43: anti-DLL3 trispecific protein, DLL3 binder 2D02 (protein, part only; not given: anti-CD3 fragment and anti-albumin sdAb, part only)
chain, part: B37 chain, part with N27S, M34L, R57L, T100I, S108Y
B44: anti-DLL3 trispecific protein, DLL3 binder 1E05 (protein, part only; not given: anti-CD3 fragment and anti-albumin domain, part only)
chain, part: B37 chain, part with N27S, S30V, G35A, V48A, R57K, D61K, V63A, R99N, S108Y
B45: anti-DLL3 trispecific protein, DLL3 binder 2C01 (protein, part only; not given: anti-CD3 fragment and anti-albumin sdAb, part only)
chain, part: B37 chain, part with N27S, S29A, R57K, T100Y, S108Y
B46: anti-DLL3 trispecific protein, DLL3 binder 1F07 (protein, part only; not given: CD3 fragment and albumin sdAb, part only)
chain, part: B37 chain, part with N27S, R57K, Y59D, S108Y
B47: anti-DLL3 trispecific protein, DLL3 binder 1H08 (protein, part only; not given: CD3 binder and albumin binder, part only)
chain, part: B37 chain, part with N27S, S29F, R57K, Y59L, T100L, S108Y

Sequence of biotinylated human DLL3 protein expressed as a human IgG1 fusion protein (human) (Q9NYJ7 27-492): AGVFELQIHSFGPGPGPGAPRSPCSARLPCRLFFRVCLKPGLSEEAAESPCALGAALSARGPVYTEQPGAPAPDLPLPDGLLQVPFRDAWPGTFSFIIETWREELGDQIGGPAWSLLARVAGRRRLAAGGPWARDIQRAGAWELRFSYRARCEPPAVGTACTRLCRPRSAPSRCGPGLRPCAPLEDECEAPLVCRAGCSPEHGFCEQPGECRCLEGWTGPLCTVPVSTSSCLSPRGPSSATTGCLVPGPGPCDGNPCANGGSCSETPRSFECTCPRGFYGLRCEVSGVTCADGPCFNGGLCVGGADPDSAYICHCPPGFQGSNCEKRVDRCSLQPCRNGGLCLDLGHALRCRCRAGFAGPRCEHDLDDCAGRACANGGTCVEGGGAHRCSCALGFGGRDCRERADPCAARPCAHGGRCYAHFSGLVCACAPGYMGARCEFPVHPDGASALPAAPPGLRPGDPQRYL

The experiment has as its target biotinylated human DLL3 protein expressed as a human IgG1 fusion protein (human) (UniProt Q9NYJ7). The experiment is described as follows: Octet, biotinylated human DLL3-IgG1 fusion on streptavidin tips, single 50 nM, conditioned medium (relative KD).
As for B1, the Kd came out at 11 nM.
Turning to B2, the Kd was 14 nM.
B3 gave a Kd of 12 nM.
Consider B4, for which the Kd was 16 nM.
For B5 the value was 16 nM.
Under B6 stands 13 nM; under B7, 15 nM; under B8, 16 nM.
As for B9, the Kd stood at 12 nM.
Turning to B10, the Kd worked out at 15 nM.
Molecule B11 displayed a Kd of 12 nM.
With B12, the Kd was 12 nM.
Consider B13, for which the Kd came to 14 nM.
Molecule B14 showed a Kd of 16 nM.
For B15 the value was 12 nM.
The molecule B16 returned a dissociation constant Kd of 16 nM.
Molecule B17 gave a Kd of 15 nM.
As for B18, the Kd was 14 nM.
B19 returned a Kd of 16 nM.
For the molecule B20, the Kd came out at 14 nM.
In the case of B21, the Kd amounted to 14 nM.
B22: the dissociation constant Kd was found to be 13 nM.
Regarding B23, the Kd came to 15 nM.
For B24 the value was 12 nM; for B25, 13 nM; for B26, 12 nM.
As to B27, the Kd came out at 13 nM.
Turning to B28, the Kd was 13 nM.
In turn, B29 showed a Kd of 13 nM.
For B30 the value was 16 nM.
On to B31, for which the Kd was 12 nM.
Take B32: the Kd was 16 nM.
Take B33: the Kd came out at 12 nM.
B34 returned a Kd of 12 nM.
B35 yielded a Kd of 12 nM.
B36 had a Kd of 12 nM.
Molecule B37 gave an equilibrium dissociation constant (Kd) of 11 nM.
B38 returned a Kd of 14 nM.
In turn, B39 gave a Kd of 14 nM.
Under B40 stands 12 nM.
Turning to B41, the Kd was 14 nM.
For B42, the Kd was 13 nM.
B43 returned a Kd of 14 nM.
For B44 the value was 14 nM; for B45, 12 nM.
Take B46: the Kd amounted to 13 nM.
For B47 the value was 17 nM.
